# Results: US12187772 (Regeneron, dated 2025)
# Like-named read-outs stand apart in the source and are kept apart here.
# B1: IL10M2 (hIL10-3XG4S-Fc; Fc is IgG4s) (Fc fusion)
# chain: SPGQGTQSENSCTHFPGNLPNMLRDLRDAFSRVKTFFQMKDQLDNLLLKESLLEDFKGYLGCQALSEMIQFYLEEVMPQAENQDPDIKAHVNSLGENLKTLRLRLRRCHRFLPCENKSKAVEQVKNAFNKLQEKGIYKAMSEFDIFINYIEAYMTMKIRNGGGGSGGGGSGGGGSESKYGPPCPPCPAPPVAGPSVFLFPPKPKDTLMISRTPEVTCVVVDVSQEDPEVQFNWYVDGVEVHNAKTKPREEQFNSTYRVVSVLTVLHQDWLNGKEYKCKVSNKGLPSSIEKTISKAKGQPREPQVYTLPPSQEEMTKNQVSLTCLVKGFYPSDIAVEWESNGQPENNYKTTPPVLDSDGSFFLYSRLTVDKSRWQEGNVFSCSVMHEALHNHYTQKSLSLSLGK
# B2: IL10M7 (hIL10-1XG4S-Fc; Fc is IgG4s) (Fc fusion)
# chain: SPGQGTQSENSCTHFPGNLPNMLRDLRDAFSRVKTFFQMKDQLDNLLLKESLLEDFKGYLGCQALSEMIQFYLEEVMPQAENQDPDIKAHVNSLGENLKTLRLRLRRCHRFLPCENKSKAVEQVKNAFNKLQEKGIYKAMSEFDIFINYIEAYMTMKIRNGGGGSESKYGPPCPPCPAPPVAGPSVFLFPPKPKDTLMISRTPEVTCVVVDVSQEDPEVQFNWYVDGVEVHNAKTKPREEQFNSTYRVVSVLTVLHQDWLNGKEYKCKVSNKGLPSSIEKTISKAKGQPREPQVYTLPPSQEEMTKNQVSLTCLVKGFYPSDIAVEWESNGQPENNYKTTPPVLDSDGSFFLYSRLTVDKSRWQEGNVFSCSVMHEALHNHYTQKSLSLSLGK
# B3: IL10M5 (Fc-1XG4S-hIL10; Fc is IgG4s) (Fc fusion)
# chain: ESKYGPPCPPCPAPPVAGPSVFLFPPKPKDTLMISRTPEVTCVVVDVSQEDPEVQFNWYVDGVEVHNAKTKPREEQFNSTYRVVSVLTVLHQDWLNGKEYKCKVSNKGLPSSIEKTISKAKGQPREPQVYTLPPSQEEMTKNQVSLTCLVKGFYPSDIAVEWESNGQPENNYKTTPPVLDSDGSFFLYSRLTVDKSRWQEGNVFSCSVMHEALHNHYTQKSLSLSLGKGGGGSSPGQGTQSENSCTHFPGNLPNMLRDLRDAFSRVKTFFQMKDQLDNLLLKESLLEDFKGYLGCQALSEMIQFYLEEVMPQAENQDPDIKAHVNSLGENLKTLRLRLRRCHRFLPCENKSKAVEQVKNAFNKLQEKGIYKAMSEFDIFINYIEAYMTMKIRN
# B4: hIgG4s (human IgG4 Fc isotype control; Fc is IgG4s) (antibody, V domains shown)
# VH: EVQLVESGGGLVQPGGSLRLSCAASGFTLSTYAMTWVRQAPGKGLEWVSAINYRAANTWYADSVKGRFTISRDNSKNTLYLQMNSLRDEDTAVYYCAQDRVIIKDYYVMDVWGQGTTVTVSS
# VL: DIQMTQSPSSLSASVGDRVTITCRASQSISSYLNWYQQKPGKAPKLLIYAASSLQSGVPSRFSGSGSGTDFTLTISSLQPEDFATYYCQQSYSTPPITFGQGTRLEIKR
# B5: IL10M6 (hIL10-2XG4S-Fc; Fc is IgG4s) (Fc fusion)
# chain: SPGQGTQSENSCTHFPGNLPNMLRDLRDAFSRVKTFFQMKDQLDNLLLKESLLEDFKGYLGCQALSEMIQFYLEEVMPQAENQDPDIKAHVNSLGENLKTLRLRLRRCHRFLPCENKSKAVEQVKNAFNKLQEKGIYKAMSEFDIFINYIEAYMTMKIRNGGGGSGGGGSESKYGPPCPPCPAPPVAGPSVFLFPPKPKDTLMISRTPEVTCVVVDVSQEDPEVQFNWYVDGVEVHNAKTKPREEQFNSTYRVVSVLTVLHQDWLNGKEYKCKVSNKGLPSSIEKTISKAKGQPREPQVYTLPPSQEEMTKNQVSLTCLVKGFYPSDIAVEWESNGQPENNYKTTPPVLDSDGSFFLYSRLTVDKSRWQEGNVFSCSVMHEALHNHYTQKSLSLSLGK
# B6: IL10M8 (hIL10-Fc; Fc is IgG4s) (Fc fusion)
# chain: SPGQGTQSENSCTHFPGNLPNMLRDLRDAFSRVKTFFQMKDQLDNLLLKESLLEDFKGYLGCQALSEMIQFYLEEVMPQAENQDPDIKAHVNSLGENLKTLRLRLRRCHRFLPCENKSKAVEQVKNAFNKLQEKGIYKAMSEFDIFINYIEAYMTMKIRNESKYGPPCPPCPAPPVAGPSVFLFPPKPKDTLMISRTPEVTCVVVDVSQEDPEVQFNWYVDGVEVHNAKTKPREEQFNSTYRVVSVLTVLHQDWLNGKEYKCKVSNKGLPSSIEKTISKAKGQPREPQVYTLPPSQEEMTKNQVSLTCLVKGFYPSDIAVEWESNGQPENNYKTTPPVLDSDGSFFLYSRLTVDKSRWQEGNVFSCSVMHEALHNHYTQKSLSLSLGK
# B7: IL10M1 (Fc-3XG4S-hIL10; Fc is IgG4s) (Fc fusion)
# chain: ESKYGPPCPPCPAPPVAGPSVFLFPPKPKDTLMISRTPEVTCVVVDVSQEDPEVQFNWYVDGVEVHNAKTKPREEQFNSTYRVVSVLTVLHQDWLNGKEYKCKVSNKGLPSSIEKTISKAKGQPREPQVYTLPPSQEEMTKNQVSLTCLVKGFYPSDIAVEWESNGQPENNYKTTPPVLDSDGSFFLYSRLTVDKSRWQEGNVFSCSVMHEALHNHYTQKSLSLSLGKGGGGSGGGGSGGGGSSPGQGTQSENSCTHFPGNLPNMLRDLRDAFSRVKTFFQMKDQLDNLLLKESLLEDFKGYLGCQALSEMIQFYLEEVMPQAENQDPDIKAHVNSLGENLKTLRLRLRRCHRFLPCENKSKAVEQVKNAFNKLQEKGIYKAMSEFDIFINYIEAYMTMKIRN
# Experiments:
# Assay in all cases: cell-based or functional assay
# [1] = target: T1, IL10 receptor (IL10 receptor subunit alpha IL10Ra and beta subunit IL10Rb) on Ramos/STAT3-Luc and … (UniProt Q13651 22-578; Q08334 20-325, limits assumed)
# T1 sequence (looked up) 1: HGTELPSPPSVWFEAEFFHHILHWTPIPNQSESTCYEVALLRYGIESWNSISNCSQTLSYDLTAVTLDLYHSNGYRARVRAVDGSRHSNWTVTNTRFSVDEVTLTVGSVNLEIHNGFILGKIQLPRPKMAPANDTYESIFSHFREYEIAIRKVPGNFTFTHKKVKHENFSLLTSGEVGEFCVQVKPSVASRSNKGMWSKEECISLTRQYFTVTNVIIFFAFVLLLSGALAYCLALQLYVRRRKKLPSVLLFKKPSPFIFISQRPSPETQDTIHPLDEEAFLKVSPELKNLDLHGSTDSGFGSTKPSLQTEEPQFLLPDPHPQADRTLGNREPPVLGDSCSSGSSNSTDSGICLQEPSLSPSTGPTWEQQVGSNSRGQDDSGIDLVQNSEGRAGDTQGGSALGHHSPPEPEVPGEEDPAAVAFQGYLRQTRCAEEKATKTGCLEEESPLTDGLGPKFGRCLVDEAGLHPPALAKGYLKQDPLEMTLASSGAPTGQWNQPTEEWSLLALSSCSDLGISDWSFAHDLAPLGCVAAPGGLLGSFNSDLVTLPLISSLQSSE
# T1 sequence (looked up) 2: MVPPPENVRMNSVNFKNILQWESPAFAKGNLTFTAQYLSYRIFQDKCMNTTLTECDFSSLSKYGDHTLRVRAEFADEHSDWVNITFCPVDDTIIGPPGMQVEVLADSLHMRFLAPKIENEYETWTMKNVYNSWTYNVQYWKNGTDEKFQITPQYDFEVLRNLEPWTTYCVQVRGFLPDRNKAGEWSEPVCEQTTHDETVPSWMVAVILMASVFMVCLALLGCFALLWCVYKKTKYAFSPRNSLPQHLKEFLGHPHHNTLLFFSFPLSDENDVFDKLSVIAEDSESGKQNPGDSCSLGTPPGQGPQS
# [2] = target: T1, IL10 receptor (IL10 receptor subunit …); remark: listed apart in the source
# [3] = target: T1, IL10 receptor (IL10 receptor subunit …); remark: listed apart in the source
binder,measurement,setting,value
B1,"EC50 of luciferase activity, Ramos/Stat3-Luc reporter cells (IL10M2 L1)",[1],0.254 nM
same,"EC50 of luciferase activity, Ramos/Stat3-Luc reporter cells (IL10M2 L2)",[1],0.192 nM
same,"EC50 of luciferase activity, TF-1/Stat3-Luc reporter cells (IL10M2 L1)",[1],0.507 nM
same,"EC50 of luciferase activity, TF-1/Stat3-Luc reporter cells (IL10M2 L2)",[1],0.45 nM
same,"Fold Induction of luciferase activity, Ramos/Stat3-Luc reporter cells (IL10M2 L1)",[1],3.42 fold
same,"Fold Induction of luciferase activity, Ramos/Stat3-Luc reporter cells (IL10M2 L2)",[1],3.06 fold
same,"Fold Induction of luciferase activity, TF-1/Stat3-Luc reporter cells (IL10M2 L1)",[1],2.85 fold
same,"Fold Induction of luciferase activity, TF-1/Stat3-Luc reporter cells (IL10M2 L2)",[1],2.68 fold
same,"EC50 [M] of luciferase activity, Ramos/STAT3-Luc reporter cells",[2],2.13e-10 M
same,"EC50 [M] of luciferase activity, TF-1/STAT3-Luc reporter cells",[2],5.15e-10 M
same,"Fold Induction of luciferase activity, Ramos/Stat3-Luc reporter cells",[2],3.6 fold
same,"Fold Induction of luciferase activity, TF-1/Stat3-Luc reporter cells",[2],4.1 fold
B2,"EC50 of luciferase activity, Ramos/Stat3-Luc reporter cells",[3],0.172 nM
same,"EC50 of luciferase activity, TF-1/Stat3-Luc reporter cells",[3],0.319 nM
same,"Fold Induction of luciferase activity, Ramos/Stat3-Luc reporter cells",[3],2.88 fold
same,"Fold Induction of luciferase activity, TF-1/Stat3-Luc reporter cells",[3],2.36 fold
B3,"EC50 of luciferase activity, Ramos/Stat3-Luc reporter cells",[3],0.127 nM
same,"EC50 of luciferase activity, TF-1/Stat3-Luc reporter cells",[3],0.146 nM
same,"Fold Induction of luciferase activity, Ramos/Stat3-Luc reporter cells",[3],3.81 fold
same,"Fold Induction of luciferase activity, TF-1/Stat3-Luc reporter cells",[3],3.4 fold
B4,"Fold Induction of luciferase activity, Ramos/Stat3-Luc reporter cells",[1],1.01 fold
same,"Fold Induction of luciferase activity, TF-1/Stat3-Luc reporter cells",[1],0.99 fold
same,"Fold Induction of luciferase activity, Ramos/Stat3-Luc reporter cells",[2],1 fold
same,"Fold Induction of luciferase activity, TF-1/Stat3-Luc reporter cells",[2],1.4 fold
B5,"EC50 of luciferase activity, Ramos/Stat3-Luc reporter cells",[3],0.127 nM
same,"EC50 of luciferase activity, TF-1/Stat3-Luc reporter cells",[3],0.361 nM
same,"Fold Induction of luciferase activity, Ramos/Stat3-Luc reporter cells",[3],3.02 fold
same,"Fold Induction of luciferase activity, TF-1/Stat3-Luc reporter cells",[3],2.66 fold
B6,"EC50 of luciferase activity, Ramos/Stat3-Luc reporter cells",[3],0.268 nM
same,"EC50 of luciferase activity, TF-1/Stat3-Luc reporter cells",[3],0.484 nM
same,"Fold Induction of luciferase activity, Ramos/Stat3-Luc reporter cells",[3],3.2 fold
same,"Fold Induction of luciferase activity, TF-1/Stat3-Luc reporter cells",[3],2.34 fold
B7,"EC50 of luciferase activity, Ramos/Stat3-Luc reporter cells (IL10M1 L1)",[1],0.117 nM
same,"EC50 of luciferase activity, Ramos/Stat3-Luc reporter cells (IL10M1 L2)",[1],0.148 nM
same,"EC50 of luciferase activity, TF-1/Stat3-Luc reporter cells (IL10M1 L1)",[1],0.139 nM
same,"EC50 of luciferase activity, TF-1/Stat3-Luc reporter cells (IL10M1 L2)",[1],0.134 nM
same,"Fold Induction of luciferase activity, Ramos/Stat3-Luc reporter cells (IL10M1 L1)",[1],4.11 fold
same,"Fold Induction of luciferase activity, Ramos/Stat3-Luc reporter cells (IL10M1 L2)",[1],3.66 fold
same,"Fold Induction of luciferase activity, TF-1/Stat3-Luc reporter cells (IL10M1 L1)",[1],4.12 fold
same,"Fold Induction of luciferase activity, TF-1/Stat3-Luc reporter cells (IL10M1 L2)",[1],3.4 fold
same,"EC50 [M] of luciferase activity, Ramos/STAT3-Luc reporter cells",[2],1.19e-10 M
same,"EC50 [M] of luciferase activity, TF-1/STAT3-Luc reporter cells",[2],1.18e-10 M
same,"Fold Induction of luciferase activity, Ramos/Stat3-Luc reporter cells",[2],3.7 fold
same,"Fold Induction of luciferase activity, TF-1/Stat3-Luc reporter cells",[2],4.8 fold
